Measurements from US20130336893A1 (Sanofi, published 2013).
*1 amine or outer side, *2 acyl side, *3 side chain or, on linkers, in order; H or OH if unused. Where no end group is shown, it is not given here. Side-chain parts run from the residue outwards. [ ]: non-standard residue; d: D form. The star is where a group is joined. γGlu = O=C(O)[C@H](CCC(=O)[*:2])N[*:1]; Palmitoyl = CCCCCCCCCCCCCCCC(=O)*; Aib = CC(C)(N)C(=O)O

B1: SEQ ID NO: (59) (peptide)
peptide: H[Aib]QGTFTSDLSKQMDSRRAQDFIEWLKNGGPSSGAPPPSK([γGlu-Palmitoyl])-NH2
modifications: N-terminus assumed
SMILES: CCCCCCCCCCCCCCCC(=O)N[C@@H](CCC(=O)NCCCC[C@H](NC(=O)[C@H](CO)NC(=O)[C@@H]1CCCN1C(=O)[C@@H]1CCCN1C(=O)[C@@H]1CCCN1C(=O)[C@H](C)NC(=O)CNC(=O)[C@H](CO)NC(=O)[C@H](CO)NC(=O)[C@@H]1CCCN1C(=O)CNC(=O)CNC(=O)[C@H](CC(N)=O)NC(=O)[C@H](CCCCN)NC(=O)[C@H](CC(C)C)NC(=O)[C@H](Cc1c[nH]c2ccccc12)NC(=O)[C@H](CCC(=O)O)NC(=O)[C@@H](NC(=O)[C@H](Cc1ccccc1)NC(=O)[C@H](CC(=O)O)NC(=O)[C@H](CCC(N)=O)NC(=O)[C@H](C)NC(=O)[C@H](CCCNC(=N)N)NC(=O)[C@H](CCCNC(=N)N)NC(=O)[C@H](CO)NC(=O)[C@H](CC(=O)O)NC(=O)[C@H](CCSC)NC(=O)[C@H](CCC(N)=O)NC(=O)[C@H](CCCCN)NC(=O)[C@H](CO)NC(=O)[C@H](CC(C)C)NC(=O)[C@H](CC(=O)O)NC(=O)[C@H](CO)NC(=O)[C@@H](NC(=O)[C@H](Cc1ccccc1)NC(=O)[C@@H](NC(=O)CNC(=O)[C@H](CCC(N)=O)NC(=O)C(C)(C)NC(=O)[C@@H](N)Cc1c[nH]cn1)[C@@H](C)O)[C@@H](C)O)[C@@H](C)CC)C(N)=O)C(=O)O
B2: SEQ ID NO: (64) (peptide)
peptide: H[dS]QGTFTSDLSKQMESRRAQDFIEWLKNAGPSSGAPPPSK([γGlu-Palmitoyl])-NH2
modifications: N-terminus assumed
SMILES: CCCCCCCCCCCCCCCC(=O)N[C@@H](CCC(=O)NCCCC[C@H](NC(=O)[C@H](CO)NC(=O)[C@@H]1CCCN1C(=O)[C@@H]1CCCN1C(=O)[C@@H]1CCCN1C(=O)[C@H](C)NC(=O)CNC(=O)[C@H](CO)NC(=O)[C@H](CO)NC(=O)[C@@H]1CCCN1C(=O)CNC(=O)[C@H](C)NC(=O)[C@H](CC(N)=O)NC(=O)[C@H](CCCCN)NC(=O)[C@H](CC(C)C)NC(=O)[C@H](Cc1c[nH]c2ccccc12)NC(=O)[C@H](CCC(=O)O)NC(=O)[C@@H](NC(=O)[C@H](Cc1ccccc1)NC(=O)[C@H](CC(=O)O)NC(=O)[C@H](CCC(N)=O)NC(=O)[C@H](C)NC(=O)[C@H](CCCNC(=N)N)NC(=O)[C@H](CCCNC(=N)N)NC(=O)[C@H](CO)NC(=O)[C@H](CCC(=O)O)NC(=O)[C@H](CCSC)NC(=O)[C@H](CCC(N)=O)NC(=O)[C@H](CCCCN)NC(=O)[C@H](CO)NC(=O)[C@H](CC(C)C)NC(=O)[C@H](CC(=O)O)NC(=O)[C@H](CO)NC(=O)[C@@H](NC(=O)[C@H](Cc1ccccc1)NC(=O)[C@@H](NC(=O)CNC(=O)[C@H](CCC(N)=O)NC(=O)[C@@H](CO)NC(=O)[C@@H](N)Cc1c[nH]cn1)[C@@H](C)O)[C@@H](C)O)[C@@H](C)CC)C(N)=O)C(=O)O
B3: SEQ ID NO: (62) (peptide)
peptide: H[Aib]QGTFTSDLSKQMESRRAQDFIEWLKNGGPSSGAPPPSK([γGlu-Palmitoyl])-NH2
modifications: N-terminus assumed
SMILES: CCCCCCCCCCCCCCCC(=O)N[C@@H](CCC(=O)NCCCC[C@H](NC(=O)[C@H](CO)NC(=O)[C@@H]1CCCN1C(=O)[C@@H]1CCCN1C(=O)[C@@H]1CCCN1C(=O)[C@H](C)NC(=O)CNC(=O)[C@H](CO)NC(=O)[C@H](CO)NC(=O)[C@@H]1CCCN1C(=O)CNC(=O)CNC(=O)[C@H](CC(N)=O)NC(=O)[C@H](CCCCN)NC(=O)[C@H](CC(C)C)NC(=O)[C@H](Cc1c[nH]c2ccccc12)NC(=O)[C@H](CCC(=O)O)NC(=O)[C@@H](NC(=O)[C@H](Cc1ccccc1)NC(=O)[C@H](CC(=O)O)NC(=O)[C@H](CCC(N)=O)NC(=O)[C@H](C)NC(=O)[C@H](CCCNC(=N)N)NC(=O)[C@H](CCCNC(=N)N)NC(=O)[C@H](CO)NC(=O)[C@H](CCC(=O)O)NC(=O)[C@H](CCSC)NC(=O)[C@H](CCC(N)=O)NC(=O)[C@H](CCCCN)NC(=O)[C@H](CO)NC(=O)[C@H](CC(C)C)NC(=O)[C@H](CC(=O)O)NC(=O)[C@H](CO)NC(=O)[C@@H](NC(=O)[C@H](Cc1ccccc1)NC(=O)[C@@H](NC(=O)CNC(=O)[C@H](CCC(N)=O)NC(=O)C(C)(C)NC(=O)[C@@H](N)Cc1c[nH]cn1)[C@@H](C)O)[C@@H](C)O)[C@@H](C)CC)C(N)=O)C(=O)O
B4: SEQ ID NO: (71) (peptide)
peptide: H[dS]QGTFTSDLSKQMDSRRAQDFIEWLKNTGPSSGAPPPSK([γGlu-Palmitoyl])-NH2
modifications: N-terminus assumed
SMILES: CCCCCCCCCCCCCCCC(=O)N[C@@H](CCC(=O)NCCCC[C@H](NC(=O)[C@H](CO)NC(=O)[C@@H]1CCCN1C(=O)[C@@H]1CCCN1C(=O)[C@@H]1CCCN1C(=O)[C@H](C)NC(=O)CNC(=O)[C@H](CO)NC(=O)[C@H](CO)NC(=O)[C@@H]1CCCN1C(=O)CNC(=O)[C@@H](NC(=O)[C@H](CC(N)=O)NC(=O)[C@H](CCCCN)NC(=O)[C@H](CC(C)C)NC(=O)[C@H](Cc1c[nH]c2ccccc12)NC(=O)[C@H](CCC(=O)O)NC(=O)[C@@H](NC(=O)[C@H](Cc1ccccc1)NC(=O)[C@H](CC(=O)O)NC(=O)[C@H](CCC(N)=O)NC(=O)[C@H](C)NC(=O)[C@H](CCCNC(=N)N)NC(=O)[C@H](CCCNC(=N)N)NC(=O)[C@H](CO)NC(=O)[C@H](CC(=O)O)NC(=O)[C@H](CCSC)NC(=O)[C@H](CCC(N)=O)NC(=O)[C@H](CCCCN)NC(=O)[C@H](CO)NC(=O)[C@H](CC(C)C)NC(=O)[C@H](CC(=O)O)NC(=O)[C@H](CO)NC(=O)[C@@H](NC(=O)[C@H](Cc1ccccc1)NC(=O)[C@@H](NC(=O)CNC(=O)[C@H](CCC(N)=O)NC(=O)[C@@H](CO)NC(=O)[C@@H](N)Cc1c[nH]cn1)[C@@H](C)O)[C@@H](C)O)[C@@H](C)CC)[C@@H](C)O)C(N)=O)C(=O)O
B5: SEQ ID NO: (65) (peptide)
peptide: H[dS]QGTFTSDLSKQMDSRRAQDFIEWLKSGGPSSGAPPPSK([γGlu-Palmitoyl])-NH2
modifications: N-terminus assumed
SMILES: CCCCCCCCCCCCCCCC(=O)N[C@@H](CCC(=O)NCCCC[C@H](NC(=O)[C@H](CO)NC(=O)[C@@H]1CCCN1C(=O)[C@@H]1CCCN1C(=O)[C@@H]1CCCN1C(=O)[C@H](C)NC(=O)CNC(=O)[C@H](CO)NC(=O)[C@H](CO)NC(=O)[C@@H]1CCCN1C(=O)CNC(=O)CNC(=O)[C@H](CO)NC(=O)[C@H](CCCCN)NC(=O)[C@H](CC(C)C)NC(=O)[C@H](Cc1c[nH]c2ccccc12)NC(=O)[C@H](CCC(=O)O)NC(=O)[C@@H](NC(=O)[C@H](Cc1ccccc1)NC(=O)[C@H](CC(=O)O)NC(=O)[C@H](CCC(N)=O)NC(=O)[C@H](C)NC(=O)[C@H](CCCNC(=N)N)NC(=O)[C@H](CCCNC(=N)N)NC(=O)[C@H](CO)NC(=O)[C@H](CC(=O)O)NC(=O)[C@H](CCSC)NC(=O)[C@H](CCC(N)=O)NC(=O)[C@H](CCCCN)NC(=O)[C@H](CO)NC(=O)[C@H](CC(C)C)NC(=O)[C@H](CC(=O)O)NC(=O)[C@H](CO)NC(=O)[C@@H](NC(=O)[C@H](Cc1ccccc1)NC(=O)[C@@H](NC(=O)CNC(=O)[C@H](CCC(N)=O)NC(=O)[C@@H](CO)NC(=O)[C@@H](N)Cc1c[nH]cn1)[C@@H](C)O)[C@@H](C)O)[C@@H](C)CC)C(N)=O)C(=O)O
B6: SEQ ID NO: (61) (peptide)
peptide: H[dS]QGTFTSDLSKQMESRRAQDFIEWLKNGGPSSGAPPPSK([γGlu-Palmitoyl])-NH2
modifications: N-terminus assumed
SMILES: CCCCCCCCCCCCCCCC(=O)N[C@@H](CCC(=O)NCCCC[C@H](NC(=O)[C@H](CO)NC(=O)[C@@H]1CCCN1C(=O)[C@@H]1CCCN1C(=O)[C@@H]1CCCN1C(=O)[C@H](C)NC(=O)CNC(=O)[C@H](CO)NC(=O)[C@H](CO)NC(=O)[C@@H]1CCCN1C(=O)CNC(=O)CNC(=O)[C@H](CC(N)=O)NC(=O)[C@H](CCCCN)NC(=O)[C@H](CC(C)C)NC(=O)[C@H](Cc1c[nH]c2ccccc12)NC(=O)[C@H](CCC(=O)O)NC(=O)[C@@H](NC(=O)[C@H](Cc1ccccc1)NC(=O)[C@H](CC(=O)O)NC(=O)[C@H](CCC(N)=O)NC(=O)[C@H](C)NC(=O)[C@H](CCCNC(=N)N)NC(=O)[C@H](CCCNC(=N)N)NC(=O)[C@H](CO)NC(=O)[C@H](CCC(=O)O)NC(=O)[C@H](CCSC)NC(=O)[C@H](CCC(N)=O)NC(=O)[C@H](CCCCN)NC(=O)[C@H](CO)NC(=O)[C@H](CC(C)C)NC(=O)[C@H](CC(=O)O)NC(=O)[C@H](CO)NC(=O)[C@@H](NC(=O)[C@H](Cc1ccccc1)NC(=O)[C@@H](NC(=O)CNC(=O)[C@H](CCC(N)=O)NC(=O)[C@@H](CO)NC(=O)[C@@H](N)Cc1c[nH]cn1)[C@@H](C)O)[C@@H](C)O)[C@@H](C)CC)C(N)=O)C(=O)O

How the values were obtained:
human GLP-1 receptor = human GLP-1 receptor (human, UniProt P43220 24-463); assay: cell-based or functional assay
human glucagon receptor = human glucagon receptor (human, UniProt P47871 26-477); assay: cell-based or functional assay
human glucagon receptor, sequence (P47871 26-477): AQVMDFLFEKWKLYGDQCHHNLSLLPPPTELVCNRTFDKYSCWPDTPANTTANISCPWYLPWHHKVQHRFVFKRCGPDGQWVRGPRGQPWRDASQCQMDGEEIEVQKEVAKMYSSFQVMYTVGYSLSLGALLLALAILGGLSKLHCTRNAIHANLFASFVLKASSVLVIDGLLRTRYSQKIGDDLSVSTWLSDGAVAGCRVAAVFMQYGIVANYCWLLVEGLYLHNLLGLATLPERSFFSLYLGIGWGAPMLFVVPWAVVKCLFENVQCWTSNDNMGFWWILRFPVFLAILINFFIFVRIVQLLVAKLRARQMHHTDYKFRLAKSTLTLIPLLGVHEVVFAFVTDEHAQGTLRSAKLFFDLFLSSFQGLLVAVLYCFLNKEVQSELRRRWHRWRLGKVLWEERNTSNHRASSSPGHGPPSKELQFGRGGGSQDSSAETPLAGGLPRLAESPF

| Binder | EC50 hGLP-1R (cAMP formation) (human GLP-1 receptor) [nM] | EC50 hGlucagonR (cAMP formation) (human glucagon receptor) [nM] |
| --- | --- | --- |
| HSQGTFTSDLSKQMDSRRAQDFIEWLKNGGPSSGAPPPK([γGlu-Palmitoyl])-NH2 [SEQ ID NO: (6)] | 0.0031 | – |
| B1 | 0.0029 | 0.0409 |
| B2 | 0.0219 | 0.067 |
| B3 | 0.0063 | 0.13 |
| B4 | 0.0056 | – |
| H[dS]QGTFTSDLSKQMDSRRAQDFIEWLKN[dA]GPSSGAPPPSK([γGlu-Palmitoyl])-NH2 [SEQ ID NO: (68)] | 0.0123 | – |
| H[dS]QGTFTSDLSKQMDSRRAQDFIEWLKNAGPSSGAPPPSK([γGlu-Palmitoyl])-NH2 [SEQ ID NO: (67)] | 0.0215 | – |
| HGEGTFTSDLSKQMDSRRAQDFIEWLKNGGPSSGAPPPS-NH2 [SEQ ID NO: (4)] | 0.0174 | 565 |
| B5 | 0.015 | 0.0057 |
| B6 | 0.0042 | 0.0304 |
